Like-named read-outs stand apart in the source and are kept apart here. [ ]: non-standard residue; d: D form. NMeK = CN[C@@H](CCCCN)C(=O)O; BDPFL = dye

Experiment in all cases: competition
Assay [1] addresses T1, integrin αvβ8 (human, UniProt P06756).
T1 chain 1: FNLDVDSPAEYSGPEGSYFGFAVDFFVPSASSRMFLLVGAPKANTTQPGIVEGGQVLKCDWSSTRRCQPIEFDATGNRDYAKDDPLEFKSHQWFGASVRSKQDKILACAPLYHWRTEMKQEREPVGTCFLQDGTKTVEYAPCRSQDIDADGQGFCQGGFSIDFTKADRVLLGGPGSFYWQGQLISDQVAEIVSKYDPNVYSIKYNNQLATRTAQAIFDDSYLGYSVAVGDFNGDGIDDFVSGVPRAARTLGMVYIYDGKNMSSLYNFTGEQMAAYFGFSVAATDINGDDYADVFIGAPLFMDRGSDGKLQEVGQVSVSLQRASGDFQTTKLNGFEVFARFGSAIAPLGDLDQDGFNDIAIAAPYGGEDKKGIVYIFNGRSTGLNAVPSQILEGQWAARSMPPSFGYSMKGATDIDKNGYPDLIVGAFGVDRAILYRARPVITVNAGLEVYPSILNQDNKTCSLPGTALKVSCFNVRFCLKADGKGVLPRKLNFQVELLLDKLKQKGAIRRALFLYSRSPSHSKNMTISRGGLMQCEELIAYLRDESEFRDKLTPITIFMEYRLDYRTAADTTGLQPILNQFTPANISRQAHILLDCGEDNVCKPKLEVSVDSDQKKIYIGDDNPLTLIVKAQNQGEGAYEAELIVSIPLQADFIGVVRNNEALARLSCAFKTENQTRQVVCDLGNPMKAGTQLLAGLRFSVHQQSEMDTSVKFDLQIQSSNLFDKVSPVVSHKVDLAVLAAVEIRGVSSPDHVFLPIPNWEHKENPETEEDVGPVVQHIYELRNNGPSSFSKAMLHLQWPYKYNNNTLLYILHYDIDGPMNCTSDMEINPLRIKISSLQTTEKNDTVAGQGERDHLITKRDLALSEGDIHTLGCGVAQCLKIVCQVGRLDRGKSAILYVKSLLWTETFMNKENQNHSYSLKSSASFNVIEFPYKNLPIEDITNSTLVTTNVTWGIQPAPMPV
T1 chain 2: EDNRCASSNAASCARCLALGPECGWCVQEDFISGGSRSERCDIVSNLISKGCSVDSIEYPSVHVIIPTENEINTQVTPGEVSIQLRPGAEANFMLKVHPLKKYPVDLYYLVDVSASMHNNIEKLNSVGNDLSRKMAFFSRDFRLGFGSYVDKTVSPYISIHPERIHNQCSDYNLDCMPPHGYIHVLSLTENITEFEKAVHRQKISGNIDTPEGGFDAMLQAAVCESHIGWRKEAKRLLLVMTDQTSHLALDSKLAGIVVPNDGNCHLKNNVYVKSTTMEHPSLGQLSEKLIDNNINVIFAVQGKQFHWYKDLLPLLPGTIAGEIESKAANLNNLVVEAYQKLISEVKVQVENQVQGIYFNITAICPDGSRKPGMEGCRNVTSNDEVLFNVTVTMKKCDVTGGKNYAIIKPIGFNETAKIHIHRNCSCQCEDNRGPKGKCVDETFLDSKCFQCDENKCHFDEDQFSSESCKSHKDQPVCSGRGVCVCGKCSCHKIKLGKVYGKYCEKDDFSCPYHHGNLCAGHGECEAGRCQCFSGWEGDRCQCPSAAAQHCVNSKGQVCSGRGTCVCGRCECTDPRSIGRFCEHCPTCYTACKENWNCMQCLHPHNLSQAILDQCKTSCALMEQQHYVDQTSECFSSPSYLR

Assay [2] concerns the target T2, integrin α5β1 (human, UniProt P08648).
Assay [3] concerns the target T3, integrin αvβ5 (human, UniProt P06756).
T3 chain 1: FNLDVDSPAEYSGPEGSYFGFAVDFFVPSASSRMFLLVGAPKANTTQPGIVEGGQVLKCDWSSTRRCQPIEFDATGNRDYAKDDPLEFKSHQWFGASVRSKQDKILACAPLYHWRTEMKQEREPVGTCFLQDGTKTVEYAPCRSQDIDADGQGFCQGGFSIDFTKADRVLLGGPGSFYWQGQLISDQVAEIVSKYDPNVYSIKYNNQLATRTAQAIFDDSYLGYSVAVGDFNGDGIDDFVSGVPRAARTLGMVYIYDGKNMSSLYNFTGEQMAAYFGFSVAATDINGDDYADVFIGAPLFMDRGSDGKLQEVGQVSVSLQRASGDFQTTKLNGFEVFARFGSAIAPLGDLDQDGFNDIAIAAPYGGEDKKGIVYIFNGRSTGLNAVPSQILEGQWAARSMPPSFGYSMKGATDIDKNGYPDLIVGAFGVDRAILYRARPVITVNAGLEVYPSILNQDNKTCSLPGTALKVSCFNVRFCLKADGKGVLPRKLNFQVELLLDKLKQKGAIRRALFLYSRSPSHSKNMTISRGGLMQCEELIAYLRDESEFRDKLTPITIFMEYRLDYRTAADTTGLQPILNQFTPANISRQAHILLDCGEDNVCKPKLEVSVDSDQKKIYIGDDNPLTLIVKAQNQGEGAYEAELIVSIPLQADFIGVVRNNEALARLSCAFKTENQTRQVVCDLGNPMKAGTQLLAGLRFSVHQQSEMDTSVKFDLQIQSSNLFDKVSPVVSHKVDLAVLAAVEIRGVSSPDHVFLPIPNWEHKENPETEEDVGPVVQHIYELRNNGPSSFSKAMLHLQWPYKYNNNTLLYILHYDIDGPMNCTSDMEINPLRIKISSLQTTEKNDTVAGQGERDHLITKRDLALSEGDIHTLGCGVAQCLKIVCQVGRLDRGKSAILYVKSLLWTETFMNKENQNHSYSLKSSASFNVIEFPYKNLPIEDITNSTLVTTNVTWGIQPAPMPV
T3 chain 2: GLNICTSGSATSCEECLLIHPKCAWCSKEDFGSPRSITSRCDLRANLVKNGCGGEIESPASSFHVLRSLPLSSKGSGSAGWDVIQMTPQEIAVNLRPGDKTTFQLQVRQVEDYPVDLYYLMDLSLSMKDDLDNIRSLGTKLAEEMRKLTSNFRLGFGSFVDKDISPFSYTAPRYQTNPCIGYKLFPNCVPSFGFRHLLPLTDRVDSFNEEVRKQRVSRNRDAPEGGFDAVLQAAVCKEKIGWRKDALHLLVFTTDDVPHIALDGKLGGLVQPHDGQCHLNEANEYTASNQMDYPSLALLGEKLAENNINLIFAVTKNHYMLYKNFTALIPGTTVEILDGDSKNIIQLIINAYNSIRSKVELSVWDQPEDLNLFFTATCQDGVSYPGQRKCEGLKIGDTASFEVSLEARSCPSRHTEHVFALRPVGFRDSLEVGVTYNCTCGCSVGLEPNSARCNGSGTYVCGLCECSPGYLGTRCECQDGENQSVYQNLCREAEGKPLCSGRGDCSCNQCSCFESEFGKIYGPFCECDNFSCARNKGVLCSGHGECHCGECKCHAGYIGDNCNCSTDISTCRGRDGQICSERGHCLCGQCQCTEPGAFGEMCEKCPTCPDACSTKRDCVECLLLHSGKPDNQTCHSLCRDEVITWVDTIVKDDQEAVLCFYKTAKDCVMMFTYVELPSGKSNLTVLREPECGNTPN

For assay [4], the target named is T4, integrin αvβ6 (human, UniProt P06756).
T4 chain 1: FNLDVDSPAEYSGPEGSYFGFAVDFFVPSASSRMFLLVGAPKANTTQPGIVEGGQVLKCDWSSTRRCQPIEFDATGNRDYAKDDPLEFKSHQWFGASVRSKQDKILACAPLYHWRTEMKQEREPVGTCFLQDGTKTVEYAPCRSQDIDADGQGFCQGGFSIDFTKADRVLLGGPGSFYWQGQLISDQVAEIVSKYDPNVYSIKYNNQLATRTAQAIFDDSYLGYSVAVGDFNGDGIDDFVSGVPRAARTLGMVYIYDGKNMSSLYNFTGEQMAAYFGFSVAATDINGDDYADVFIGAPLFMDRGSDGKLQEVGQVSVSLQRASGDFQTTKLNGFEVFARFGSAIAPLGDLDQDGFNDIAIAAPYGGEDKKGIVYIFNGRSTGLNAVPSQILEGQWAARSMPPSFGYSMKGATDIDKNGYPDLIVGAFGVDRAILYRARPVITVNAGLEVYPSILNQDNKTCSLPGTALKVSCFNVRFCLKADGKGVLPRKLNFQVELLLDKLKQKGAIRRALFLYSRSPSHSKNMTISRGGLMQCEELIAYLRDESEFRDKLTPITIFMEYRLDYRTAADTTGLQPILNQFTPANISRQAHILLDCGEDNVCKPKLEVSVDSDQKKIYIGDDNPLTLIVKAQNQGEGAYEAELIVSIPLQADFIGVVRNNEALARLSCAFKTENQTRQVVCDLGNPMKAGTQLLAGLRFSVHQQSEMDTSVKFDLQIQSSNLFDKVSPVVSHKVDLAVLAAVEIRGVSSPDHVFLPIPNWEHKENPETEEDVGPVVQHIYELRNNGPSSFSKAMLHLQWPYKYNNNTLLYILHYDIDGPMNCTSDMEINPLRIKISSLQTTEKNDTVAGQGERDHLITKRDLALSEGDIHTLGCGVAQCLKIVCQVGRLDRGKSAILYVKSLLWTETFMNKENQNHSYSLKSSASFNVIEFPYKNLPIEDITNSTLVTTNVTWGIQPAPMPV
T4 chain 2: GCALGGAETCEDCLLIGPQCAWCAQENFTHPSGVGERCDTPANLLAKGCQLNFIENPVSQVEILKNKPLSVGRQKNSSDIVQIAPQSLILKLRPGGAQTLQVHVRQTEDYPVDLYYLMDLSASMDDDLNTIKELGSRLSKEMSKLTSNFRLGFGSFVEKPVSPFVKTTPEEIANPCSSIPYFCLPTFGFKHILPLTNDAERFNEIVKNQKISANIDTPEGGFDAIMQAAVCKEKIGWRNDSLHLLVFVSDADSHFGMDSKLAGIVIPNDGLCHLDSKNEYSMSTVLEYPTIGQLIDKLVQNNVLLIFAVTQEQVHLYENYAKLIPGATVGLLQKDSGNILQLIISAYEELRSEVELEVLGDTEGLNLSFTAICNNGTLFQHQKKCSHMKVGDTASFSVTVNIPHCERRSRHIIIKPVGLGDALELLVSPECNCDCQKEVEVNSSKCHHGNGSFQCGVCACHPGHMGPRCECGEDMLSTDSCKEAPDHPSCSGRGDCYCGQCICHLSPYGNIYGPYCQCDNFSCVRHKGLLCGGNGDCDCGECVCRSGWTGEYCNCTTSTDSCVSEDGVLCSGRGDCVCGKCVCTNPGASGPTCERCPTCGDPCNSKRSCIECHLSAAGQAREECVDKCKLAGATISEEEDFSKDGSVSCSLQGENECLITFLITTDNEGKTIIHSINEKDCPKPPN

Assay [5] has as its target T5, integrin αvβ3 (human, UniProt P06756).
T5 chain 1: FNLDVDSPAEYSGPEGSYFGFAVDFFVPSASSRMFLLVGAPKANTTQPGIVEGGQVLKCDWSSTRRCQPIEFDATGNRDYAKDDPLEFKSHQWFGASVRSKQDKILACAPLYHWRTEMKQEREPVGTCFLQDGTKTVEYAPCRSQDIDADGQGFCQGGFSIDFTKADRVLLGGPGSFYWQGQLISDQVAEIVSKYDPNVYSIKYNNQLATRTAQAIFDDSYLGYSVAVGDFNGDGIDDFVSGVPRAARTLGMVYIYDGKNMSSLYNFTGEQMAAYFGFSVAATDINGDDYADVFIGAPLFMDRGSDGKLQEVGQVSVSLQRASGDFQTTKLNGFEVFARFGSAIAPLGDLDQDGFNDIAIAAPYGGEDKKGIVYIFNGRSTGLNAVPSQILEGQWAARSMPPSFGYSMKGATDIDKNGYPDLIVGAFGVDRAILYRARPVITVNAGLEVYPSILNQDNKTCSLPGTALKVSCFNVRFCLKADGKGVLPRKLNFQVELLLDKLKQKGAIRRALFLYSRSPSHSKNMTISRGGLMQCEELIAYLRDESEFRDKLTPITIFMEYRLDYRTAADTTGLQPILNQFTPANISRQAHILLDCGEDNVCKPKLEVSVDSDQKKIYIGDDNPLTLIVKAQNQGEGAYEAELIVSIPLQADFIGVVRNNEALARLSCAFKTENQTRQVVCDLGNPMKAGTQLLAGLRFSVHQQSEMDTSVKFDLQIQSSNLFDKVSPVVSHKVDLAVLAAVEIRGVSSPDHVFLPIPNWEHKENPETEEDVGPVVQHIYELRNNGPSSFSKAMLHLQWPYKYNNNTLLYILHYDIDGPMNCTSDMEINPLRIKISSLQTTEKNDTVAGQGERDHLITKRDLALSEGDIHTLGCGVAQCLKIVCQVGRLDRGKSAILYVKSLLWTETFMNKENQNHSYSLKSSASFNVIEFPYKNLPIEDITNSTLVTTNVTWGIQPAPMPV
T5 chain 2: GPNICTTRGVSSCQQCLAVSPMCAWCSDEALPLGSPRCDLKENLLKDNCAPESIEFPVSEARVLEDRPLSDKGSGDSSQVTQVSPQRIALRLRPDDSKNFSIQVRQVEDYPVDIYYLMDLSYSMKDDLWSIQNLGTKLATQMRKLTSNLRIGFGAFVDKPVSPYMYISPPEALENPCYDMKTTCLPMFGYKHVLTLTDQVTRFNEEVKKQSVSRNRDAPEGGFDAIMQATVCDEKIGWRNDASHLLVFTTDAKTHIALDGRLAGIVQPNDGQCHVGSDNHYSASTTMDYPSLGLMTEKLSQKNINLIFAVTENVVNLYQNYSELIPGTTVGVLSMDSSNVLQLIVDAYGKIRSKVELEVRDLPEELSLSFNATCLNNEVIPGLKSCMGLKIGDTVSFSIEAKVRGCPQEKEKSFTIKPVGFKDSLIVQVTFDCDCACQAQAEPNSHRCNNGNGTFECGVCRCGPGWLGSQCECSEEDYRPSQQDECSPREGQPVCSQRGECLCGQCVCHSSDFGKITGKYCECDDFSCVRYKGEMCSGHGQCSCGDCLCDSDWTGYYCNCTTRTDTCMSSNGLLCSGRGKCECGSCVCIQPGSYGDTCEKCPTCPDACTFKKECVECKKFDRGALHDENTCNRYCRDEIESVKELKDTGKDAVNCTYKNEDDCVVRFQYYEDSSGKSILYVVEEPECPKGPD

The target in assay [6] is T2, integrin α5β1. The source holds these as a separate data set.
A further assay has as its target integrin αIIbβ3 (human, UniProt P08514).
The target of assay [7] is T1, integrin αvβ8.
Assay [8] addresses T5, integrin αvβ3.
For assay [9], the target named is T4, integrin αvβ6.
The target in assay [10] is T3, integrin αvβ5.

T2 sequence (P08648 42-1049, chain 1 of 2): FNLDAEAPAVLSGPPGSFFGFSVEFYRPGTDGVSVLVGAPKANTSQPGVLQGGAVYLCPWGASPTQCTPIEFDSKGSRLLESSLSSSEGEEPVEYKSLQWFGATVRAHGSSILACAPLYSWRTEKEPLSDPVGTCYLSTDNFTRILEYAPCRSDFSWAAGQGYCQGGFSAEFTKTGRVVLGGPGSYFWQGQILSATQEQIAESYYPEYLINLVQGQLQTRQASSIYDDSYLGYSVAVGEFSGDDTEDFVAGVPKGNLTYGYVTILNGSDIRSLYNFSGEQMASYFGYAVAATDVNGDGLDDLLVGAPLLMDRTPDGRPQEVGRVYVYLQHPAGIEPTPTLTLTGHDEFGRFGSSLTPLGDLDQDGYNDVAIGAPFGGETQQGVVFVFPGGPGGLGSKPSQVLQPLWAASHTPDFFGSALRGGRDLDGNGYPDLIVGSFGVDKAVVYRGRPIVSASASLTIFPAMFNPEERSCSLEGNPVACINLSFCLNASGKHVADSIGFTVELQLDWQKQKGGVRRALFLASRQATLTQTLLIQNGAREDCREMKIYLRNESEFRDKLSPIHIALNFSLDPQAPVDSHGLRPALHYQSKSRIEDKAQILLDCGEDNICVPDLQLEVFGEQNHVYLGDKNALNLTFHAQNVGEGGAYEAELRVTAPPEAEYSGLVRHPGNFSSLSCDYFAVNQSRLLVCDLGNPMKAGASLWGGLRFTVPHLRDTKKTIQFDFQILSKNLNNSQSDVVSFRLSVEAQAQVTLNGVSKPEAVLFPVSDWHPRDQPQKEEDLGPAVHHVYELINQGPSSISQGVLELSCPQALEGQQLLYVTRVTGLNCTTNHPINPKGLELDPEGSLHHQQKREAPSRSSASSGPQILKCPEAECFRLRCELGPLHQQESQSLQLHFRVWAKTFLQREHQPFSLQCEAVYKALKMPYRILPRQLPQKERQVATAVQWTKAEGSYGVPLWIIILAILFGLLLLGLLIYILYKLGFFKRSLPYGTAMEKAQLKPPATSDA
T2 sequence (chain, as listed by the source, chain 2 of 2): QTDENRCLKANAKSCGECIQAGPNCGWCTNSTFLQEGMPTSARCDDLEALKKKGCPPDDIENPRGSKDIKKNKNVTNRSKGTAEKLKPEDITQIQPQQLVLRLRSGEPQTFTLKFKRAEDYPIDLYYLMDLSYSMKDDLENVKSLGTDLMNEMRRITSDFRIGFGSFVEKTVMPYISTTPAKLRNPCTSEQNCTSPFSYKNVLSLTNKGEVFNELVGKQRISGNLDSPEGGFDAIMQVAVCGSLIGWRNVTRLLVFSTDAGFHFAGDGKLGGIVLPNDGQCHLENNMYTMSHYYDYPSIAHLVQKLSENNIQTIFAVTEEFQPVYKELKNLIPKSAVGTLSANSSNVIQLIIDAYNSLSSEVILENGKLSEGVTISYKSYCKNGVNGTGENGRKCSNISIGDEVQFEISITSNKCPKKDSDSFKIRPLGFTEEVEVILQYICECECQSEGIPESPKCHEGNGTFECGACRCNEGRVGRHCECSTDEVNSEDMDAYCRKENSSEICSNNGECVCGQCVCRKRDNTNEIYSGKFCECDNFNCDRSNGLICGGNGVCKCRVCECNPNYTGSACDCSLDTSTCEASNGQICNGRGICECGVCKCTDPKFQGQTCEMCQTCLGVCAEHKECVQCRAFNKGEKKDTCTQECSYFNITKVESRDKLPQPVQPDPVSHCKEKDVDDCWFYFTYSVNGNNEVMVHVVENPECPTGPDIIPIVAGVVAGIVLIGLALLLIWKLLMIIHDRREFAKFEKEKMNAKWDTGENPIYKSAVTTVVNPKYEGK

As for cyclo(RGDL[dP][NMeK](BDPFL)GL) [Compound 9a (9-BDPFL)], the IC50 was 0.66 nM with integrin αvβ8 [1]; 1470 nM with integrin α5β1 [2]; over 10000 nM in the assay with integrin αvβ5 [3]; 94 nM with integrin αvβ6 [4]; 676 nM with integrin αvβ3 [5].

In the case of cyclo(RGDL[dP]PGL) [Compound 2], the IC50 with integrin α5β1 [6] is over 1000 nM; in the assay with integrin αIIbβ3, over 1000 nM; with integrin αvβ8 [7], 0.93 nM; in the assay with integrin αvβ3 [8], over 1000 nM; with integrin αvβ6 [9], 210 nM; with integrin αvβ5 [10], over 1000 nM.

Broadly, the IC50 is the concentration that inhibits the measured activity by half. Read a low IC50 as inhibition by little substance.

(Values after patent US20200087347 (published 2020).)
